Sequences and labels used below:
B1: OR4K15 (parent)
chain: GUUAACGGUCAUAGGCCAUGGAAACUAGGAGCACCAUUUCGCUGCCAGUGAAGAAAUGAACAAAGAAAAUCUGGGCCAGGCAGGCAUCAAAAGAAAUAGUCUUGCGCUCAACCAGAAAGUCUGUAAUCAUUUUAAGGGUA

The variants in this data set derive from B1. In words: self-cleavage, relative activity (ratio to wild type); higher = more cleavage; in vitro, sequencing; the parent is a self-cleaving ribozyme.
Take G44C C46A: the self-cleavage is 1.19. The value for U2A U122C was 0.72; that for U70C U124A was 0.17. Consider U19C A78G, for which the self-cleavage came out at 0.29. Take G50A A63G: the self-cleavage stood at 1.21. The value for A67U U120A was 2.17.

For the variant C121A G137A, the self-cleavage amounted to 1.87. As for G14A A91G, the self-cleavage was determined as 1.67. With G44U A64G, the self-cleavage was determined as 1.19. Take A116U U122C: the self-cleavage was 0.21.

Consider G44A, for which the self-cleavage was 1.53. For the variant A47C A116G, the self-cleavage worked out at 1.3. As for U9C A135G, the self-cleavage was 1.5. The result for A52G G75C reads 0.13.

As to U38C U127G, the self-cleavage came out at 1.17. Consider G7A A18G, for which the self-cleavage was determined as 0.64.

As to C76U A118G, the self-cleavage turned out to be 0.1. Turning to C10U A95C, the self-cleavage was 0.6. The result for A33G G115U reads 0.06; that for A24G A82G, 0.67.

With U103C G138C, the self-cleavage turned out to be 0.95. As to A116G A134G, the self-cleavage came out at 0.59. Take A78C U131C: the self-cleavage turned out to be 0.17. Regarding G29A U87C, the self-cleavage worked out at 1.7. As for U38G A118G, the self-cleavage came out at 0.95. For U43A U132C, the self-cleavage turned out to be 1.86. The result for A11G C112U reads 0.05. The value for A78G U132C was 0.12.

On to U26C U139A, for which the self-cleavage was found to be 1.49. As for A64U A114U, the self-cleavage turned out to be 0.02. Take A94G U97A: the self-cleavage is 2.02. The value for G14U A118U was 0.4. The value for U43A A98C was 1.91. On to U57A A66G, for which the self-cleavage stood at 0.73. On to A56G U120G, for which the self-cleavage was 1.98.

Turning to G73A G136U, the self-cleavage is 0.22. As for A23G C46U, the self-cleavage turned out to be 1.59. Take C35U U38A: the self-cleavage worked out at 0.41. With C46A A118U, the self-cleavage was 0.26. For the variant G58A U102C, the self-cleavage was 2.39.

U2C U70C: the self-cleavage was 0.46.

As for A60G A135U, the self-cleavage turned out to be 1.41. For A54G A59U, the self-cleavage turned out to be 0.71. As to U87C G138A, the self-cleavage was 1.2.

Take A36U U132C: the self-cleavage was 1.2. Consider U12C A96G, for which the self-cleavage turned out to be 1.02.

For the variant U2C A66G, the self-cleavage was found to be 1.45. The result for C76U A78C reads 0.11. For U3C G119A, the self-cleavage turned out to be 1.44. Take U87A A110C: the self-cleavage was found to be 0.25. U87A A110G: the self-cleavage worked out at 0.15. For the variant A55G A110C, the self-cleavage came out at 0.2.

Take A11U C61A: the self-cleavage stood at 1.92. For A126G U132C, the self-cleavage was determined as 1.07. The result for U19C A64G reads 1.09. Turning to U103C U132A, the self-cleavage was determined as 1.03. Turning to U37C U124A, the self-cleavage stood at 0.21. As for A96G A126G, the self-cleavage stood at 1.01. The value for A56G A129C was 1.03; that for U19C A114G was 0.39; that for A11U A60G was 1.16.

Take U2A A98G: the self-cleavage came out at 0.1. Take A47G A134G: the self-cleavage was determined as 0.84.

For the variant U39A U49A, the self-cleavage is 1.4. Consider U38C U132A, for which the self-cleavage worked out at 1.77. The result for U37C A66C reads 1.34; that for A36G A116U, 1; that for A116G U131G, 0.3. U12C U97C: the self-cleavage came out at 0.65.

Regarding A64G A95U, the self-cleavage stood at 0.64. For the variant A67U U72C, the self-cleavage turned out to be 0.31. For the variant A118C U132C, the self-cleavage was 0.57. Take U70C A114U: the self-cleavage was determined as 0.02. The result for A68G A114G reads 0.68; that for U9C A36G, 0.96. As to A23G A111C, the self-cleavage came out at 0. With A13G A125U, the self-cleavage was 0.88. For the variant U26C A126U, the self-cleavage came to 1.29.

Take C6U G74A: the self-cleavage was 0.46.

In the case of A27G U130C, the self-cleavage came to 0.63.

Regarding A63G A125G, the self-cleavage came to 0.64.

Take A111G A140G: the self-cleavage worked out at 0.

On to A18U A27G, for which the self-cleavage is 1.13. The value for A54G U130C was 0.76; that for A52G U102C was 2.18.

For A92U A116G, the self-cleavage was 0.99. Consider A66U A67G, for which the self-cleavage is 0.98. In the case of A24U G123A, the self-cleavage came out at 1.3. In the case of A64U A98U, the self-cleavage amounted to 1.98. Turning to A92U A125G, the self-cleavage was 0.58. As for A51G G74U, the self-cleavage was 0.37. Turning to A111G A126U, the self-cleavage amounted to 0.01. Regarding A18G C40U, the self-cleavage was found to be 1.66.

For the variant A22U A111G, the self-cleavage was 0.02. With A89C U139C, the self-cleavage amounted to 1.52. The value for G29C C42U was 1.06; that for A33G A125U was 1.17. With A27C A67U, the self-cleavage was determined as 1.29. With U57A U133C, the self-cleavage was 1.08.

In the case of U43C A66G, the self-cleavage is 1.29. Consider A22C A96G, for which the self-cleavage was determined as 2.53. For C6A U57C, the self-cleavage was found to be 0.36.

Regarding U9A U122A, the self-cleavage was found to be 1.22.

For A90G U102A, the self-cleavage is 0.09. As for G93A U108A, the self-cleavage stood at 0.02. For the variant G28A A129G, the self-cleavage was 0.99.

U70C G104A: the self-cleavage was determined as 0.03.

A59G C85U: the self-cleavage turned out to be 0.51. Consider A36U A98U, for which the self-cleavage was determined as 2.42. The value for A13G A89C was 0; that for A24G C81G was 0.21; that for A63G G84A was 1.86.

On to A52G G106A, for which the self-cleavage is 0.01. The value for U72C A117C was 0.08; that for A62C A67G was 0.86; that for A52U A82G was 1.09. The result for A30U A63G reads 2.01; that for G106C A116G, 0.01; that for U38C U87A, 1.6. For U38C U102A, the self-cleavage worked out at 1.44. Regarding A98U U131A, the self-cleavage was determined as 0.49. Take A96C: the self-cleavage came out at 0.82. Take A24G U49A: the self-cleavage turned out to be 1.37. The value for C32U A51G was 1.88. For A59U U72C, the self-cleavage was 0.17. For U49C A82U, the self-cleavage stood at 0.2.

For U122C A125C, the self-cleavage was 0.72. For G28U, the self-cleavage came out at 0.74. Turning to U100A G123A, the self-cleavage came out at 0.47. Regarding C105U U120C, the self-cleavage was found to be 0.05. A62G A86G: the self-cleavage is 1.4.

Take U19C A55U: the self-cleavage worked out at 1.69. On to A47G A66U, for which the self-cleavage was determined as 1.11. With U70A U103A, the self-cleavage is 0.67. The result for U37G A89G reads 1.75; that for A55U A92U, 2.65; that for G14C A82G, 0.32. With C77A, the self-cleavage is 0.76. Consider A18G U103C, for which the self-cleavage amounted to 1.04. Take A64G A96U: the self-cleavage is 0.91. Consider A5U A47C, for which the self-cleavage is 1.29.

For A36G U43G, the self-cleavage is 1.28.

As to A94C U103C, the self-cleavage turned out to be 0.38. Take U72A G119A: the self-cleavage was 0.47. Regarding U3C U108C, the self-cleavage was determined as 0.04.

Turning to U49C A89G, the self-cleavage was determined as 1.26. The value for G106A A140U was 0.05. A18U A91U: the self-cleavage was 1.96. On to A64U A95G, for which the self-cleavage was found to be 1.95. U19A G44A: the self-cleavage amounted to 2.16. With A30G C109A, the self-cleavage was found to be 0.23.

For the variant A5G A90C, the self-cleavage came to 1.08. Regarding A23G A69G, the self-cleavage stood at 0.91. Consider A125G A129U, for which the self-cleavage stood at 0.01. U57G A126G: the self-cleavage was 0.52. Turning to A5G A86U, the self-cleavage was 1.27. U3G A66G: the self-cleavage was 1.01. The result for U70A A89U reads 1.74. Turning to A64G U100A, the self-cleavage came out at 0.51. For the variant A18G A51U, the self-cleavage amounted to 1.15. On to U39C A60C, for which the self-cleavage is 2.05. As for A110G A140G, the self-cleavage came to 0.15.

On to A86U U124A, for which the self-cleavage turned out to be 1.02. Consider U108C U131C, for which the self-cleavage amounted to 0.01.

In the case of U9C U103A, the self-cleavage amounted to 1.9. U19C A126G: the self-cleavage worked out at 1.48. As for U39C A117G, the self-cleavage was 1.95.

(Values after the RNAGym collection of RNA variant scans (doi:10.7554/elife.90254).)
